Measured values: US20240117334

Molecular target: Human Factor B
Sequence (chain, as listed by the source): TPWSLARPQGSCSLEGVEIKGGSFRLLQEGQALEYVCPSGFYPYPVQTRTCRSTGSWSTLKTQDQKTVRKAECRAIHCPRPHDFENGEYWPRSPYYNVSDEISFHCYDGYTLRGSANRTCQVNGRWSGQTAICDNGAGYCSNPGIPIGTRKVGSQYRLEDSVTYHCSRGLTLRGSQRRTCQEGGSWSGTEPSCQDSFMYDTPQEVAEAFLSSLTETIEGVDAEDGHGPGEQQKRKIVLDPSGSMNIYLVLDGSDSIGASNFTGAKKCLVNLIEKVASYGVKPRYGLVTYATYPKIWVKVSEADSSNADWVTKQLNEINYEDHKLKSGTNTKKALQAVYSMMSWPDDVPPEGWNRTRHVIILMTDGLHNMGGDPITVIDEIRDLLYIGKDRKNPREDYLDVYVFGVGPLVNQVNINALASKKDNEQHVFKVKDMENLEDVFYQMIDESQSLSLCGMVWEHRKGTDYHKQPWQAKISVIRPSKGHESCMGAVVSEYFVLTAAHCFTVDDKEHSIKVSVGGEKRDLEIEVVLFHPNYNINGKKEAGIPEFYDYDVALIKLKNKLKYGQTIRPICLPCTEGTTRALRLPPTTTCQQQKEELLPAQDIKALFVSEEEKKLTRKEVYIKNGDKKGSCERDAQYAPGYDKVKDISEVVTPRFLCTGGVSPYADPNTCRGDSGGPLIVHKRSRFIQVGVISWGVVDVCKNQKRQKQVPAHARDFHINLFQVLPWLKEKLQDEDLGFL

Protein | Factor B cleavage, Coomassie gel | other results
chymase C22S/K40L/F41K/L99N/F173Y/D175N/S218L/A226R (protein) IIGGTESKPHSRPYMAYLEIVTSNGPSLKCGGFLIRRNFVLTAAHCAGRSITVTLGAHNITEEEDTWQKLEVIKQFRHPKYNTSTNHHDIMLLKLKEKASLTLAVGTLPFPSQFNFVPPGRMCRVAGWGRTGVLKPGSDTLQEVKLRLMDPQACSHYRNFDHNLQLCVGNPRKTKSAFKGDSGGPLLCAGVAQGIVSYGRLDAKPPRVFTRISHYRPWINQILQAN | each lot showed the ability of the engineered proteases to cleave Factor B | –
MTSP-1 F97E/K224N/F99L/D217I/C122S/C[17]S/C[19]S (protein) VVGGTDADEGEWPWQVSLHALGQGHICGASLISPNWLVSAAHCYIDDRGFRYSDPTQWTAFLGLHDQSQRSAPGVQERRLKRIISHPFFNDETLDYDIALLELEKPAEYSSMVRPISLPDASHVFPAGKAIWVTGWGHTQYGGTGALILQKGEIRVINQTTCENLLPQQITPRMMCVGFLSGGVDSCQGDSGGPLSSVEADGRIFQAGVVSWGIGCAQRNNPGVYTRLPLFRDWIKENTGV | – | Factor B add-back hemolysis: is able to inhibit hemolysis
chymase C22S/P38Q/K40M/F41R/L99M/F173Y/D175N/V213Q/S218V/A226R/F228A (protein) IIGGTESKPHSRPYMAYLEIVTSNGQSMRCGGFLIRRNFVLTAAHCAGRSITVTLGAHNITEEEDTWQKLEVIKQFRHPKYNTSTMHHDIMLLKLKEKASLTLAVGTLPFPSQFNFVPPGRMCRVAGWGRTGVLKPGSDTLQEVKLRLMDPQACSHYRNFDHNLQLCVGNPRKTKSAFKGDSGGPLLCAGVAQGIQSYGRVDAKPPRVATRISHYRPWINQILQAN | each lot showed the ability of the engineered proteases to cleave Factor B | –
chymase C22S/P38Q/K40M/F41R/D175N/V213Q/S218V/A226R/F228A (protein) IIGGTESKPHSRPYMAYLEIVTSNGQSMRCGGFLIRRNFVLTAAHCAGRSITVTLGAHNITEEEDTWQKLEVIKQFRHPKYNTSTLHHDIMLLKLKEKASLTLAVGTLPFPSQFNFVPPGRMCRVAGWGRTGVLKPGSDTLQEVKLRLMDPQACSHFRNFDHNLQLCVGNPRKTKSAFKGDSGGPLLCAGVAQGIQSYGRVDAKPPRVATRISHYRPWINQILQAN | each lot showed the ability of the engineered proteases to cleave Factor B | –
chymase C22S/P38Q/K40L/F41R/L99H/V138I/F173Y/D175S/A190S/V213A/S218I/A226R (protein) IIGGTESKPHSRPYMAYLEIVTSNGQSLRCGGFLIRRNFVLTAAHCAGRSITVTLGAHNITEEEDTWQKLEVIKQFRHPKYNTSTHHHDIMLLKLKEKASLTLAVGTLPFPSQFNFVPPGRMCRIAGWGRTGVLKPGSDTLQEVKLRLMDPQACSHYRSFDHNLQLCVGNPRKTKSSFKGDSGGPLLCAGVAQGIASYGRIDAKPPRVFTRISHYRPWINQILQAN | each lot showed the ability of the engineered proteases to cleave Factor B | –
chymase C22S/P38Q/K40L/F41R/V138I/F173Y/D175N/A190S/V213A/S218V/A226R (protein) IIGGTESKPHSRPYMAYLEIVTSNGQSLRCGGFLIRRNFVLTAAHCAGRSITVTLGAHNITEEEDTWQKLEVIKQFRHPKYNTSTLHHDIMLLKLKEKASLTLAVGTLPFPSQFNFVPPGRMCRIAGWGRTGVLKPGSDTLQEVKLRLMDPQACSHYRNFDHNLQLCVGNPRKTKSSFKGDSGGPLLCAGVAQGIASYGRVDAKPPRVFTRISHYRPWINQILQAN | – | Factor B cleavage: show high Factor B cleavage activity
chymase C22S/P38Q/K40M/F41R/V138I/F173Y/D175R/A190S/V213A/S218V/A226R (protein) IIGGTESKPHSRPYMAYLEIVTSNGQSMRCGGFLIRRNFVLTAAHCAGRSITVTLGAHNITEEEDTWQKLEVIKQFRHPKYNTSTLHHDIMLLKLKEKASLTLAVGTLPFPSQFNFVPPGRMCRIAGWGRTGVLKPGSDTLQEVKLRLMDPQACSHYRRFDHNLQLCVGNPRKTKSSFKGDSGGPLLCAGVAQGIASYGRVDAKPPRVFTRISHYRPWINQILQAN | – | Factor B cleavage: show high Factor B cleavage activity
